# Measured values: patent US20230038638A1, “COMPLEMENT FACTOR I-RELATED COMPOSITIONS AND METHODS” (published 2023)
# Target: T1, human C4b (human) (UniProt P0C0L4)
# T1 sequence: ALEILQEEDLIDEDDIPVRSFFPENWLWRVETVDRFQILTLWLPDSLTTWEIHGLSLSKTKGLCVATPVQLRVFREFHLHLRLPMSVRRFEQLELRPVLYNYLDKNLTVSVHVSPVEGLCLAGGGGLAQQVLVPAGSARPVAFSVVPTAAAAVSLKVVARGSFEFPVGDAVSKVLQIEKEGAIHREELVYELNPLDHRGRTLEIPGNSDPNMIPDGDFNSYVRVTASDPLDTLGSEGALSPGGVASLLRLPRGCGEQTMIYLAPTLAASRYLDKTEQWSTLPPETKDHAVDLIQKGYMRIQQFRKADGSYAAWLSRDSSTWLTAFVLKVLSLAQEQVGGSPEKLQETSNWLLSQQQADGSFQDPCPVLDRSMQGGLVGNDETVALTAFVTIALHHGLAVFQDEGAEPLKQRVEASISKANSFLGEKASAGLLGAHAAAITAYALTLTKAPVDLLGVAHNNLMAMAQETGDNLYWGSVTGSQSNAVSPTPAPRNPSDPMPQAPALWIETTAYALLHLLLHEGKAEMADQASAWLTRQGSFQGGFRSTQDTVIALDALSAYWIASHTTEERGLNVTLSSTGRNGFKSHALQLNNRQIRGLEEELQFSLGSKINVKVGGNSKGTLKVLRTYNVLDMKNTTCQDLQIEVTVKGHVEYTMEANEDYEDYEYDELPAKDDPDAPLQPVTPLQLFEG
Substance,C4c EC50,C4c EC50 (nM)
CFI-HSA variant E457G; Y408L (enzyme),108 nM,
CFI-HSA variant E461Q; F464Y (enzyme),123 nM,
CFI-HSA variant K534M (enzyme),154 nM,
CFI-HSA variant N531G; D425R; E530Y (enzyme),,162 nM
CFI-HSA variant Y408L; E457G; R462K (enzyme),142 nM,
CFI-HSA variant N531G; R462K; F464Y (enzyme),54.8 nM,
CFI-HSA variant F464L (enzyme),> 1000 nM,
CFI-HSA variant Y408L; E457G; E461Q; R462K; N531G; GGSSGG (SEQ ID NO: 6); CR1 (ccp15-17) (from UniProt P17927) (enzyme),,91 nM
CFI-HSA variant Y408L; E457G; E461Q (enzyme),36.1 nM,
CFI-HSA variant Y408L; E457G; F464Y (enzyme),110 nM,
CFI-HSA variant N531G; E461Q; F464Y (enzyme),28.8 nM,
CFI-HSA variant N531G; R462K (enzyme),51.2 nM,
CFI-HSA variant E461Q; R462K; F464Y (enzyme),159 nM,
CFI-HSA variant T346K; Y408L; N531G (enzyme),209 nM,

# Other lines, results leading:
C4c EC50,C4c EC50 (nM),Substance
95.9 nM,,CFI-HSA variant E461Q; R462K (enzyme)
62.4 nM,,CFI-HSA variant Y408L; N531G; P535G; WT; GGSSGG (SEQ ID NO: 6); CR1(ccp15-17) (enzyme)
40.9 nM,,CFI-HSA variant Y408L; N531G; WT; GGSSGG (SEQ ID NO: 6); CR1(ccp15-17) (enzyme)
229 nM,,CFI-HSA variant Y408L; E530R; N531G (enzyme)
84.6 nM,,CFI-HSA variant E457G; R462K; F464Y (enzyme)
,35.4 nM,CFI-HSA variant Y408L; E457G; N531G; E530Y (enzyme)
58.1 nM,,CFI-HSA variant K14A; D425R; Y408L-N531G (enzyme)
82.3 nM,,CFI-HSA variant E457G; F464Y (enzyme)
23.2 nM,,CFI-HSA variant Y408L; N531G; E457G; F464Y (enzyme)
,198 nM,CFI-HSA variant Y553K (enzyme)
300 nM,,CFI-HSA variant K534N (enzyme)
63.5 nM,,CFI-HSA variant N531G; F464Y (enzyme)
60.2 nM,,CFI-HSA variant E457G; E461Q; R462K (enzyme)
24 nM,,CFI-HSA variant N531G; E461Q; R462K; F464Y (enzyme)
,38.2 nM,CFI-HSA variant N531G; E530Y (enzyme)
111 nM,,CFI-HSA variant Y408L; E530K; N531G (enzyme)
